B1: Ankyrin repeat and SAM domain-containing protein 6, residues 774 to 836; numbered along this chain, Q68DC2 (parent)
chain: DEDELTGILKKLSLEKYQPIFEEQEVDMEAFLTLTDGDLKELGIKTDGSRQQILAAISELNAG

The text below walks through data of the Human Domainome abundance scans (Beltran et al. 2025).

± gives the uncertainty stated by the source.

The variants in this series derive from B1. Put plainly: abundance fitness (aPCA) (normalised: wild type 0, dead -1); higher = more abundant; growth selection in yeast, the domain comes from the species named. As to conditions: Homo sapiens.
For DEDELTGILKKLSLEKYQPIFEEQEVDMEAFLTLTDGDLKELGIKTDGSRVQILAAISELNAG, the abundance fitness was -0.233 ± 0.05.
In the case of DEDELTGILKKLSLEKYQPIFEEQEVDMEAFLTLTDGDLKILGIKTDGSRQQILAAISELNAG, the abundance fitness is -0.472 ± 0.089.
Consider DEDELTGILKKLSLEKYQPIFEEQEVDMEAFLTLTDGDLKRLGIKTDGSRQQILAAISELNAG, for which the abundance fitness is -0.049 ± 0.039.
With DEDELTGILKKLSLEKYQPIFEEQEVDMEAFLTLTDGDLKELGIKTDGSRQQILAPISELNAG the figure was -0.377 ± 0.055; with DEDELTGILKKLSLEKYQPIFEEQEVDMEAFLTLTDGDLKELGIKTDGSRQQILASISELNAG, -0.157 ± 0.042; with DEDELTGILKKLSLEKYQPIFEEQEVDMEAFLTLTDGDLKELGIKTDGSRQQILADISELNAG, -0.183 ± 0.079.
Then DEPELTGILKKLSLEKYQPIFEEQEVDMEAFLTLTDGDLKELGIKTDGSRQQILAAISELNAG, with -0.177 ± 0.067.
As for DEDELTGILKKLSLEKYQPIFEEQEVDMEAFLTLTDGDLKELGIKTDGSRQQILAAGSELNAG, the abundance fitness is -0.37 ± 0.038.
As for DEDELTGILKKLSLEKYQPQFEEQEVDMEAFLTLTDGDLKELGIKTDGSRQQILAAISELNAG, the abundance fitness was -0.083 ± 0.061.
With DEDELTGILKKLSLEKYQPIFEEQEVDMEAFLTLTDCDLKELGIKTDGSRQQILAAISELNAG the figure was -0.269 ± 0.087.
Take DEDELTGILKKLSLEKYQPIFEEQEVDMEAFLTLTDGHLKELGIKTDGSRQQILAAISELNAG: the abundance fitness was -0.418 ± 0.076.
With DEDELTGILKKLSLEKYQPIFEEQEVDMEAFLTLTDGDLKELGIKTDGSRQPILAAISELNAG the figure was -0.715 ± 0.058; with DEDELTTILKKLSLEKYQPIFEEQEVDMEAFLTLTDGDLKELGIKTDGSRQQILAAISELNAG, 0.111 ± 0.067.
For DEDELTGILKKLSKEKYQPIFEEQEVDMEAFLTLTDGDLKELGIKTDGSRQQILAAISELNAG, the abundance fitness was -0.918 ± 0.12.
Then DEDELTGILKSLSLEKYQPIFEEQEVDMEAFLTLTDGDLKELGIKTDGSRQQILAAISELNAG, with -0.305 ± 0.058.
With DEDELTGILKKLSLEKYQPIFEEQEVDPEAFLTLTDGDLKELGIKTDGSRQQILAAISELNAG the figure was -0.168 ± 0.055; with DEDELTGILKKLSLEKYQPIFEEQEVDREAFLTLTDGDLKELGIKTDGSRQQILAAISELNAG, -0.159 ± 0.039.
On to DEDELTGSLKKLSLEKYQPIFEEQEVDMEAFLTLTDGDLKELGIKTDGSRQQILAAISELNAG, for which the abundance fitness is -0.265 ± 0.066.
Then DEDELTGRLKKLSLEKYQPIFEEQEVDMEAFLTLTDGDLKELGIKTDGSRQQILAAISELNAG, with -0.238 ± 0.038.
Then DEDELTGILKKLSLEKYQPIFEEQEVDMQAFLTLTDGDLKELGIKTDGSRQQILAAISELNAG, with -0.097 ± 0.049; and DEDELTGILKKLSLEKYQPIFEEQRVDMEAFLTLTDGDLKELGIKTDGSRQQILAAISELNAG, with -0.147 ± 0.069; and DEDELTGILKKLSLEKYQPIFEEQEWDMEAFLTLTDGDLKELGIKTDGSRQQILAAISELNAG, with -0.405 ± 0.047.
Turning to DEDELTGILKKLSLEKYQPIFEEQEVDMEAKLTLTDGDLKELGIKTDGSRQQILAAISELNAG, the abundance fitness was -0.362 ± 0.064.
Then DEDELTGILKKLSLDKYQPIFEEQEVDMEAFLTLTDGDLKELGIKTDGSRQQILAAISELNAG, with -0.158 ± 0.076.
As for DEDELTGILKKLSLEKYQPIFEEQEVDMEAFLHLTDGDLKELGIKTDGSRQQILAAISELNAG, the abundance fitness is -0.012 ± 0.21.
With DEDELTGILKKLSLEKYQPIFEEQEVDMEAFLRLTDGDLKELGIKTDGSRQQILAAISELNAG the figure was 0.048 ± 0.032; with DEDELTGILKKLNLEKYQPIFEEQEVDMEAFLTLTDGDLKELGIKTDGSRQQILAAISELNAG, 0.039 ± 0.1.
DEDELTGILKKLSLEKMQPIFEEQEVDMEAFLTLTDGDLKELGIKTDGSRQQILAAISELNAG: the abundance fitness was 0.031 ± 0.06.
Then DEDELTGILKKLSLEKYQPIFEEQEVDMEAFLTLTDGDLKELGIKTDGDRQQILAAISELNAG, with 0.157 ± 0.033; and DEDMLTGILKKLSLEKYQPIFEEQEVDMEAFLTLTDGDLKELGIKTDGSRQQILAAISELNAG, with -0.27 ± 0.19.
With DEDELTGILKKLSLEKYQPIFEEQEVDMEAFLTLTDGDLFELGIKTDGSRQQILAAISELNAG the figure was -0.326 ± 0.052; with DEDELTGILKKLSLEKYQPIFEEQEVDMEAFLTLTDGDLKELGIKTDGSRQQILAAISWLNAG, -0.35 ± 0.044.
Turning to DEDELTGILKKLSLEKYQPITEEQEVDMEAFLTLTDGDLKELGIKTDGSRQQILAAISELNAG, the abundance fitness is -0.589 ± 0.081.
Then DEDELTGILKKLSLEKYQPIFEEQEVDMEAFLTATDGDLKELGIKTDGSRQQILAAISELNAG, with -0.403 ± 0.06; and DEDELTGILKKLSLEKYQPIFEEQEVDMEAFLTLMDGDLKELGIKTDGSRQQILAAISELNAG, with -0.65 ± 0.074.
With DEDELTGILKKLSLEKYQPIFEEQEVDMEAFLTLLDGDLKELGIKTDGSRQQILAAISELNAG the figure was -0.932 ± 0.053.
Consider DEDELTGILKKLSLEKYQPIFEEQEVDMEAFLTLTDGDLKELGIKTDGSRQQILAAIQELNAG, for which the abundance fitness is -0.198 ± 0.092.
With DEDELTGILKKLSLEKYQPIFEEQEVDMEAFLTLTDGDLKELGIKTDGSMQQILAAISELNAG the figure was -0.722 ± 0.088; with DEDELTGILKKLSLEKYQPIFEEQEVDMEAFLTLTDGDLKELGIKTDGSCQQILAAISELNAG, -0.363 ± 0.072; with DEDELTGILKKLSLEKYQPIFEEQEVDMEAFLTLTDGDPKELGIKTDGSRQQILAAISELNAG, -0.747 ± 0.067.
Then DEDELTGILKKLSLEKYQPIFEQQEVDMEAFLTLTDGDLKELGIKTDGSRQQILAAISELNAG, with -0.17 ± 0.066.
In the case of DEDELTGILKKLSLEKYQPIFERQEVDMEAFLTLTDGDLKELGIKTDGSRQQILAAISELNAG, the abundance fitness is -0.06 ± 0.039.
With DEDELTGILKKLSLEKYQPIFEEPEVDMEAFLTLTDGDLKELGIKTDGSRQQILAAISELNAG the figure was -0.925 ± 0.11.
